From US20100099142

Biological target: Met-hIL-21, Q9HBE4
Sequence (Q9HBE4 whole entry, looked up): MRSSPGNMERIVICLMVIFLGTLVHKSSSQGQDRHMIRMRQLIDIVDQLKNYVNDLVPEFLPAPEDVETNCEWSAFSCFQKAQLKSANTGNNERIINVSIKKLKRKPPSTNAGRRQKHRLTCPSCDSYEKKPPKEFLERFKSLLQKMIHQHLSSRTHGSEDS

Row | Protein | Met-free hIL-21 generated (removal of initiator Met, enzyme activity) | cleavage of Met-hIL-21 in 44 h (enzyme activity) | removal of initiator Methionine, assayed by MALDI-TOF
1 | hexa-His-Xa-Met-AP M206A, Q233A (protein) MAISIKTPEDIEKMRVAGRLAAEVLEMIEPYVKPGVSTGELDRICNDYIVNEQHAVSACLGYHGYPKSVCISINEVVCHGIPDDAKLLKDGDIVNIDVTVIKDGFHGDTSKMFIVGKPTIMGERLCRITQESLYLALRMVKPGINLREIGAAIQKFVEAEGFSVVREYCGHGIGRGFHEEPQVLHYDSRETNVVLKPGMTFTIEPAVNAGKKEIRTMKDGWTVKTKDRSLSAAYEHTIVVTDNGCEILTLRKDDTIPAIISHDE | ˜65% Met-free hIL-21 | In 44 h. more than 90% cleavage of Met-hIL-21 could be observed | removal of Methionine from Met-IL21 below detection limits of Met-IL21 could be performed
2 | Met-AP (M206A) (protein) MAISIKTPEDIEKMRVAGRLAAEVLEMIEPYVKPGVSTGELDRICNDYIVNEQHAVSACLGYHGYPKSVCISINEVVCHGIPDDAKLLKDGDIVNIDVTVIKDGFHGDTSKMFIVGKPTIMGERLCRITQESLYLALRMVKPGINLREIGAAIQKFVEAEGFSVVREYCGHGIGRGFHEEPQVLHYDSRETNVVLKPGMTFTIEPAVNAGKKEIRTMKDGWTVKTKDRSLSAQYEHTIVVTDNGCEILTLRKDDTIPAIISHDE | – | – | removal of Methionine from Met-IL21 below detection limits of Met-IL21 could be performed
